Source: publication PMC3760798

Key:
[1] = target: CBP (CREB-binding protein) (UniProt P45481); assay: anti-CBP co-IP from nuclear extract, time course; settings: reference: wild type; sites S467
[2] = target: p300 (UniProt B2RWS6); assay: anti-p300 co-IP from nuclear extract, time course; settings: reference: wild type; sites S467
[3] = target: GB1-tagged RelA-TA2 fragments (all ITC titrations); assay: ITC; all ITC titrations taken together (50 mM or 150 mM NaCl); 25°C; 20 mM Tris pH 8.0, 1 mM DTT; single-binding site model

Sequence of TAZ1 domain of mouse CBP (residues 340–439) (P45481 340-439): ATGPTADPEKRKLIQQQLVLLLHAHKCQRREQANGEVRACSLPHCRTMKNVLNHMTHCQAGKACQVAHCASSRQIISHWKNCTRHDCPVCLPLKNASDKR

Substance	binding against the reference [1]	binding against the reference [2]	stoichiometry N [3]
RelA (p65) (from UniProt Q04207) S467A	weaker	weaker	
TAZ1 domain of mouse CBP (residues 340–439) (from UniProt P45481 340-439) (domain or fragment)			0.9 to 1.2
